The values that follow come from the nanobody polyreactivity screen of Harvey et al. (2022).

The nature of this data set: yeast display, Sf9 membrane polyspecificity reagent, FACS + sequencing; frameworks hold sequencing errors. In outline: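 A nanobody's polyreactivity label depends on the gate it was sorted from. Yeast display cells were stained with 10% biotinylated, detergent-solubilized Sf9 membrane reagent for 1 hour at 4 °C, enriched on streptavidin microbeads and sorted by FACS. The low and high (top ~1%) gates were set on anti-HA fluorescence for expression and streptavidin fluorescence for reagent binding.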
On to “QDQLEESGGGLVQEGGSLRLSCAASGFTFRGYAMGWYRQAPGKERELVAAISYSGGSTYYADSVKGRFTISRDNAMNSVYLQMNSLKPEDTAVYFCAARGGGKVRHRGTYDYWGQGTQVTVSS”, for which the “polyreactivity (PSR sort gate)” value is listed as “high polyreactivity”.
In the case of “QVQLVESGGGLVQAGGSLRLSCAASGGTFYFYAMVWYRQAPGKERELVAAISRSGGSTYYADSVKGRFTISRDNAKNTVYLQMNSLKPEDTAVYYCAARYTGGGIRYDYWGQGTQVTVSS”, the “polyreactivity (PSR sort gate)” value is reported as “high polyreactivity”.
On to “QVQLVESGGGLVQAVGSIRLSCAASGSIFRKYSIRWNRQAPGKDRELVAAISWSGGGTYYADSVKGRFTISRDNAKNTVYLQMNSLKPEDTAVYYCAADPYWDSKGVYWGQGTQVTVSS”, for which the “polyreactivity (PSR sort gate)” value is on record as “low polyreactivity”.
As for “QVQLVESGGGLVQAGGSLRLSCAASGFILGGYAMGWYRQAPGKERELVAAISWSSGSTYYADSVKGRFTISRDNAKTTVYLQLNSLKPEDTAVYYCAAVGAYDYWGQGTQVTVSS”, the “polyreactivity (PSR sort gate)” value is reported as “low polyreactivity”.
Regarding “QVQLVESGGGLVQAGGSLRLSCAASGIIFTYYAMGWYRQAPGKERELVASISSSGTSTYYADSVKGRFTISRDYAKNTVYLQMNSLKPEDTAVYYCAADWTGSNGVDYWGQGTQVTVSS”, the “polyreactivity (PSR sort gate)” value is “low polyreactivity”.
In the case of “QVQLVESGGGLVQAGGSLRLSCAASGTFWLYTMGWYRQAPGKERELVAAISLTAGNTYYADSVKGRFTISRDNAKNTVYLQMNSLKPEDTAVYYCAADHYYYTRYEYWGQGTQVTVSS”, the “polyreactivity (PSR sort gate)” value is recorded as “low polyreactivity”.
On to “QVQLVESGGGLVQAGGSLRLSCAASGRIFWPYAMGWYRQAPGKERELVAAISRGGSTYYADSVKGRFTISRDNAKNTVYLQINSLKPEDTAVYYCAVAFRGSYRPAYYYWRQGTQVTVSS”, for which the “polyreactivity (PSR sort gate)” value is “high polyreactivity”.
For “QVQLVESVGGLVQAGGSLRLSCAASGFTFPWNVMGRYRQAPGKERELVAAITYDGGGTYADSVKGRFTISRDNAKNTVYLQMNSLKPEDTAVYYCNADLINGEEYDYWGQGTQVTVSS” the value was “low polyreactivity”; for “QVQLVESGGGLVQAGGSLRLSCAASGYIFGTDAMGRYRQAPGKERELVAAISSTGRTYYADSVKGRFTISRDNAKNTVYLQMNSLKPEDTAVYYCAADVRTPSEGYDYWGQGTQVTVSS”, “high polyreactivity”; for “QVQLVESGGGLVQAGGSLRLSCAASGRTITYYAMGWYRQAPGKERELVAAISSAGRTNYAVSVKGRFTISRDNAKNTVYLQMNCLKPEDTAVYYCAKRYGWASGYWNSNYGYLYDYWGQGTLVTVSS”, “high polyreactivity”.
Regarding “QVQLVESGGGLVQAGGSLRLSCAASGSIFVSYAMGWYRQAPGKERELVAVISYSGVSTYYADSVKGRFTISRDNAKNTVYLQMYSLKPEDTAVYYCATRQYGTRHILKYNYWGQGTQVTVSS”, the “polyreactivity (PSR sort gate)” value is listed as “low polyreactivity”.
With “QVQLVESGGGLVQAGGSLRLSCAASGIIFGYYAMGWYRQAPGKEREFVAAINYSGVSTYYADSVKGRFTISRDNAKNTVYLQMNSLKPEDTAVYSCAADFRIVVYGWGGSHMDYWGQGTQVTVSS”, the “polyreactivity (PSR sort gate)” value was “low polyreactivity”.
On to “QVQLVESGGGLVQAGGSLRLSCAASGFISYYYAMGWYRQAPGKERELVAAITKSGGSTYYADSVKGRFTIARDNAKNTVSLQMNSLKPEDTAVYYCAAVRSTRNSTSRLYGYWGQGTQVTVSS”, for which the “polyreactivity (PSR sort gate)” value was “low polyreactivity”.
For “QVQLVESGGGLVQAGGSLRLSCAASGFIFARYAMGWYRQAPGKERELVAAISWSGARTYYADSVKGRFTISRDNAKNTVYLQMNSLKPEDTAVYYCNADYRKVTGDSYDYWGQGTQVTVSS”, the “polyreactivity (PSR sort gate)” value is “high polyreactivity”.
Turning to “QVQLVESGGGLVQAGGSLRLSCAASGSIFPRYAMGWYSQAPGKERELVATISYRGGTTYYADSVKGRFTISRDNEKNTVYLQMNSLKPEDSAVYYCNTLYYRGIYDPWGQGTQVTVSS”, the “polyreactivity (PSR sort gate)” value is listed as “high polyreactivity”.
With “QVQLVESGGGLVQAGGSLRLSCAASGSTFYFNAMGWYRQAPGKERELVAGISSGGSTYYADSVKGRFTISRDNAKNTVYLQMNSLKPEDTAVYYCAADSDTFYYTGYDYDYWGQGTQVTVSS” the entry was “low polyreactivity”; with “QVHLVESGGGLVQAGGSLRLSSAPSGSTFDAYDMGWYRQAPGKESELVAAITSGGSTNYADSVKGRFTISRDNAKNTVYLQMNSLKPEDTAVYYCAASPYRGFVSRYGYWGQGTQVTLSS”, “low polyreactivity”.
For the sequence “QVQLVESGGGLVQAGGSLRLSCAASGSIFHTYVMGWYRQAPGKERELVASITRSGGSTYYADSVKGRFTISRDNAKKTVYLQMNSLKPEDTAVYYCAATYRTANHRYYYWGQGTQVTVSS”, the “polyreactivity (PSR sort gate)” value is listed as “high polyreactivity”.
Take “QVQLVESGGGLDQAGGSLRLSCAASGSTFGYYAMAWYRQSPGKERELVAAITSGASTNYADSVKGRFTISRDNAKNTVYLQMNSLKPEDTAVYYCAAGFQTRTPLNEFDYWGQGTQVTLSS”: the “polyreactivity (PSR sort gate)” value is reported as “low polyreactivity”.
For “QVQLVESGGGLVQAGGSLRLSCAASGRTFWYNAMGWYRQAPGKERELVAAISSTGGRTYYADSVKGRFTISRDNAKNTVYLQMNSLKPEDTAVYYCAARQLSSHYDYWGQGTQVTVSS”, the “polyreactivity (PSR sort gate)” value is “low polyreactivity”.
As for “QVQLVESGGGLVQAGGSLRLSCAASGSTFYIYAMGWYRQAPGKERELVAAITSRGTITSYADSVKGRFTISRDNAKNTVYLQMNSLKPEDTAVYYCAADYWQDGIAYWYDYWGQGTQVTVSS”, the “polyreactivity (PSR sort gate)” value is listed as “low polyreactivity”.
With “QVQLVESGGGLVQAGGSLRLSCAASGSIFDVYAMGWYRQAPGKERELVAAITWRGGSTYYADSVKGRFTISRDNAKNTVYLQMNSLKPEDTAVYYCAAVYQSRLWDRYYYWGQGTQVTVSS” the entry was “high polyreactivity”; with “QVQLVESGGGLVQAGGSLRLSCAASGSTFIWNAMGWYRQAPGKVRELVAAISSGGSTYYADSVKGRFTISRDNAKNTVYLQMNSLKPEDTAVYYCAAEYVYNVSEQRYAVYSTDDYWGQGSQVTVSS”, “low polyreactivity”; with “QVQLVESGGGLVQAGGSLRLSCAASGRIFWGNAMGWYRQAPGKERELVAAISSSGGSTYYADSVKGRFTISRDNAKNTVYLQMNSLKPEDTAVYYCAARYPTYYYRYDYWGQGTQVTVSS”, “high polyreactivity”.
Turning to “QVQLVESGVGLVQAGGSLRLSCAASVRIFLFYAMGGYRQAPVKERELVAAITSGGSTYYADSVKGRFTMSRDNAKNTVYLQMNSLKPEDTAVYYCANYYWGQGTQVTVSS”, the “polyreactivity (PSR sort gate)” value is on record as “low polyreactivity”.
As to “QVQLVESGGRLVQAGGSLRLSGAASGSTIQTNVMGWYRQAPGKERELLAAISSGGSTNYADSVKGRFTISRDNAKNNVYLQMNSLKPEDTADYYCAKRWPYFRRGKDGYCGQGTQVTVSS”, the “polyreactivity (PSR sort gate)” value was “low polyreactivity”.
As for “QVQLVESGGGLVQAGGSLRLSCAASGFTFGRYAMGRYRPAPGKVRELVATITRTGSTNYADSVKGRFTISRDNAKNTVDLQMHSLKPEDTAVYYCNAVYSACRYVKYDYWGQGTQVTVSS”, the “polyreactivity (PSR sort gate)” value is reported as “low polyreactivity”.
“QVHLVESGGGLVQAGGSLRLSCAASGNTFYKYTMGWYRQAPGKERELVAVISSSSGSTYYADSVKGRFTISRDNAMNTVYLQMNSLKPEDTAVDYCNKRGWWDLRHDYWGQGTQVTVSS”: the “polyreactivity (PSR sort gate)” value was “low polyreactivity”.
For “QVHLVESGGGLVQAGGSLRLTCAASGSILAYNAMGWYRQAPGKERELVAAIRLSGGSTYYADSVKGRFTISRDNAKNTVYLQMNSLKPEDTAVYYCARRYYRYDTRKYNYWGQGTKVTVSS” the value was “high polyreactivity”; for “QVQLVESGGGLVQAGGSLRLSCAASGSIFVDYTMGWYLQAPGKERELVARITSGGSTYYADSVKGLFTISRDNAKNTVYLQMIRLNPEDTAVYYCAARPYYRYRNSWREQYYYWGQGTQVSVSS”, “high polyreactivity”.
Take “QVQLVESGGGLVQAGGSLRLRCAASGRIFTRNDIGWYRQAPGKERQLVAAISHSGGSTYADSVKGSFTISRDNAKNTVFLQMNRLKPEDTEVYYCAADSPYGYYEGDYWGQGTQVTVSS”: the “polyreactivity (PSR sort gate)” value is “low polyreactivity”.
On to “QVQLVESGGGLVQAGGSLRLSCAASGRTFRYNAMGWYRQAPGKERELVAAISGRGSSTYYADSVKGRFTISRDNAKNTVYLQMNSLKPEDTAVYYCAADRFRLYVGGWWYDYWGQGTQVTVSS”, for which the “polyreactivity (PSR sort gate)” value is “high polyreactivity”.
As to “QVQRVESGGGLVQAGGSLRLSCAASGSTLGYYTMGWYRQAPGKERELVAAIDWSGGSTYYADSVKGRFTISRDNAKNTGYLQMNSLKPEDTAVYYCNAEPWDPFYSPGRGGMDYWGQGTQVTVSS”, the “polyreactivity (PSR sort gate)” value is given as “low polyreactivity”.
As for “QVQLVESGGGLVQAGGSLRLSCAASGSIFGVYAMGWYRPAPGKERELVAVIRWRGGSTYYADSVKGRFTISRDNAKNTVYLQMNSLKPEDTAVYYCAARRHIVVATYDRRYDYWGQGTQVTVSS”, the “polyreactivity (PSR sort gate)” value was “low polyreactivity”.
For “QVQLVESGGGLVQAGGSLRLSCAACGRTFVSYAMGWYRQAPGKERELVAAITNAGSTYYADSVKGRFTISRDNAKNTVYLQMNSLKPEDTAVYYCAATYWDYWGYGYDYWGQGTQVTVSS” the value was “high polyreactivity”; for “QVQLVESGGGLVQAGGSLRLSCAPSGITFRVNAMGWYRQAPGKERELVASISRSGGSTYYADSVKGRFTISRDHAKNNVYLQMKSLKPEDTAVYYCADAQKVLFYGRWFDYWGQCTQVTVSS”, “low polyreactivity”.
As to “QVQLVESGGGLVQAGGSLRLSCAASGFIFTVYALGWYRQAPVKERELVATITGTGDTNYADSVKGRFTISRDNAKNTVYLQMNSLKPEDTAVYYCAVSPRVPFRKPVLTPYNMYYWGQGTQVTVSS”, the “polyreactivity (PSR sort gate)” value is “high polyreactivity”.
With “QVQLVESGGGLVQAGGSLRLSCAASGSIIHFYAMGWYRQAPGKERELVAAITSGTSTYYADSVKGRFTISRDNAKNTVYLQMNSLKPEDTAVYYCAAEASHYYYNAYPSYGGSDYWGQGTQVNVSS” the entry was “low polyreactivity”.
For “QVQLVESGGGLVQAGGSLRLSCAASGRIFWPYAMGWYRPAPGKERELVAAITSGGSTYYADSVKGRFTISRDNAKNTVYLQMNSLKPEVTAVYYCAKRSSGVSVPVAYGGIKRYNSWGQGTQVTVSS” the value was “low polyreactivity”; for “QFQLVESGGGLVQAGGSLRLSCAASGSILVPNDMGWYRQAPGKEREFVAAITESDGSTYYADSVKGRFTISRDNAKNTVYLQMNSLKPEDTAVYYCASDSTGVTFVHFDYWGQGTQVTVSS”, “low polyreactivity”.
